Self-cleavage data for 167 variants are collected here from the RNAGym collection of RNA variant scans (doi:10.7554/elife.80360).

First the molecules themselves.
B1: Hairpin Ribozyme (parent)
chain: GUCCUCUUUCACGUGCGCGUGAAAGAGAGAAGUGAACCAGAGAAACACACGUUGUGGUAUAUUACCUGGUA

This data set covers variants of B1. In words: self-cleavage, relative activity (ratio to wild type); higher = more cleavage; co-transcriptional.
In the case of A41U, the self-cleavage came out at 1.29.
Take A36U A64G: the self-cleavage turned out to be 0.219.
For U5G G29A, the self-cleavage was determined as 0.139.
A36C A47U: the self-cleavage worked out at 0.29.
For the variant G29C C50G, the self-cleavage stood at 0.0763.
Regarding U7A A43G, the self-cleavage turned out to be 0.222.
For the variant C18A A45U, the self-cleavage was determined as 0.11.
In the case of A22C C65A it was 0.64; in that of A11G A64C, 0.114; in that of G54U A59U, 0.178.
Consider G42U G68A, for which the self-cleavage was 0.129.
In the case of C3U A71G it was 0.653; in that of A11C G27U, 0.365; in that of U9G G13C, 0.528.
In the case of C46A U60A it was 0.0649; in that of U14C A22G, 0.864; in that of G29U A59G, 0.0822.
For the variant A49G U58G, the self-cleavage was determined as 0.45.
In the case of G17C C18A it was 0.947; in that of C48U C50A, 0.0417; in that of A41G G57A, 0.184.
On to U2A A44G, for which the self-cleavage turned out to be 0.119.
To G13A A59G belongs 0.104; to G29A A49C, 0.179.
For A31U U53G, the self-cleavage was 0.122.
To G15U G68A belongs 0.387; to G19A G51U, 0.881; to U33A G51U, 0.129.
In the case of C12G U62A, the self-cleavage was 0.176.
As to C50U G56C, the self-cleavage amounted to 0.19.
For G34U U60G, the self-cleavage turned out to be 1.34.
With U7C G40C, the self-cleavage was determined as 0.156.
For the variant U14A C50A, the self-cleavage stood at 0.13.
For the variant A23U G57U, the self-cleavage amounted to 0.307.
Turning to G13U G56C, the self-cleavage came out at 0.12.
With U55A G57U, the self-cleavage is 0.146.
Regarding C10U A43G, the self-cleavage amounted to 0.113.
With A30U A39U, the self-cleavage was 0.0553.
On to G51A C66G, for which the self-cleavage came out at 0.611.
Consider A30C C46A, for which the self-cleavage came out at 0.0713.
For U7A U33C, the self-cleavage stood at 0.151.
To G17A A47G belongs 0.129; to U5C A47U, 0.166.
On to G27U U63A, for which the self-cleavage is 0.0592.
On to G13C U62A, for which the self-cleavage was 0.143.
Turning to C50G G57A, the self-cleavage was 0.0857.
For the variant C12G C38U, the self-cleavage was 0.392.
Regarding C6A G56U, the self-cleavage turned out to be 0.218.
On to C37A G40C, for which the self-cleavage was 0.158.
With G40U A47G, the self-cleavage was 0.18.
Regarding G25U G29C, the self-cleavage was 0.153.
Turning to A23U U55G, the self-cleavage was 0.448.
Take G1U A39U: the self-cleavage amounted to 0.0669.
In the case of G13A U67G it was 0.18; in that of C38A U55G, 0.183.
C16A A23G: the self-cleavage is 0.783.
Regarding U9C A35U, the self-cleavage was determined as 0.708.
Consider G42U A61U, for which the self-cleavage came out at 0.283.
To U55A A64G belongs 0.195.
Take A41U G57U: the self-cleavage came out at 0.493.
As for C50G U62A, the self-cleavage stood at 0.213.
As for U8A A43G, the self-cleavage was 0.13.
G42C C66A: the self-cleavage stood at 0.103.
Turning to A22G A61U, the self-cleavage is 0.159.
With C37G A64G, the self-cleavage is 0.15.
Consider U9A A45U, for which the self-cleavage was 0.152.
In the case of A36G A49G, the self-cleavage came out at 0.339.
As to U9A C38G, the self-cleavage amounted to 0.145.
To G32C U67C belongs 0.105.
Take G21C G34U: the self-cleavage was 1.12.
On to C12G A30C, for which the self-cleavage was 0.0578.
G56A A59C: the self-cleavage was determined as 0.169.
On to U2C A30G, for which the self-cleavage was 0.349.
Regarding A24U U58C, the self-cleavage is 0.834.
In the case of C46U U53G it was 0.216; in that of U8C C10A, 0.363; in that of A26G A35G, 0.763.
With G19U C48U, the self-cleavage stood at 0.162.
Regarding G1U C18A, the self-cleavage came to 0.157.
As for A23C G25U, the self-cleavage was 0.172.
Take A23U A43C: the self-cleavage worked out at 0.141.
In the case of G54C U67A, the self-cleavage is 0.167.
In the case of U8C G42C it was 0.187.
As for A41U C46G, the self-cleavage stood at 0.133.
For A31C A71G, the self-cleavage was 0.212.
In the case of U9C G68A it was 0.344.
Regarding C12A U33G, the self-cleavage was 0.175.
Take G13U G21C: the self-cleavage worked out at 0.431.
For the variant A23C G34A, the self-cleavage was 1.1.
For U9G A22U, the self-cleavage was determined as 0.564.
With A59U, the self-cleavage came out at 0.157.
Consider A22U G57U, for which the self-cleavage came to 0.366.
Turning to A64U, the self-cleavage was determined as 0.181.
To G17C U62C belongs 0.233; to U5A A45G, 0.0727; to G29C A61U, 0.0566.
On to G34U C38G, for which the self-cleavage amounted to 0.595.
In the case of U20A U62G, the self-cleavage was 0.195.
For the variant G27C A49G, the self-cleavage came out at 0.075.
In the case of C18A U53G it was 0.891; in that of C12G G69A, 0.284; in that of A11U A47U, 0.266.
As to A45U U63C, the self-cleavage was 0.287.
For C3G G25U, the self-cleavage came to 0.138.
For the variant U8C U20C, the self-cleavage was 0.184.
With G27A U63C, the self-cleavage turned out to be 0.236.
Consider C38A C46A, for which the self-cleavage is 0.0508.
Consider C48G U63C, for which the self-cleavage is 0.0816.
In the case of G15A G32A it was 0.145.
To A44G U53A belongs 0.214; to A22C U52G, 0.726.
Regarding A30U G68A, the self-cleavage turned out to be 0.0299.
As to G25A A26G, the self-cleavage was found to be 0.298.
To G27U G68U belongs 0.157; to U8G G27U, 0.289; to A11U U52A, 0.85.
A31G A64C: the self-cleavage stood at 0.0777.
A26C C38G: the self-cleavage came out at 0.182.
To A26C C38U belongs 0.416.
As to A26G C37U, the self-cleavage worked out at 0.602.
As to G25A A49C, the self-cleavage was 0.232.
Take G57C U63A: the self-cleavage stood at 0.165.
In the case of A23C A35U it was 0.559.
As for A41U G69A, the self-cleavage came out at 0.685.
Turning to U20G G25C, the self-cleavage worked out at 0.643.
Regarding U2G A23U, the self-cleavage worked out at 0.265.
C65A C66G: the self-cleavage worked out at 0.0953.
For the variant G51C A61U, the self-cleavage was 0.196.
In the case of G27U G40U it was 0.0783; in that of C4G A22U, 0.196; in that of G57A G69A, 0.122.
To U8C A26G belongs 0.544; to G13A A45G, 0.161; to U5A G68U, 0.154.
Turning to G27C A61G, the self-cleavage turned out to be 0.237.
In the case of A41G G69U, the self-cleavage amounted to 0.42.
On to U8A G68C, for which the self-cleavage worked out at 0.215.
For the variant A23U A49C, the self-cleavage amounted to 0.117.
As to C18U G21U, the self-cleavage is 0.814.
Turning to C18U G21A, the self-cleavage was found to be 0.833.
In the case of G17A C50G, the self-cleavage came out at 0.327.
Turning to U33A C65U, the self-cleavage amounted to 0.238.
Take G19C A39G: the self-cleavage stood at 0.28.
On to A35G A49C, for which the self-cleavage worked out at 0.12.
Regarding A64U C65G, the self-cleavage is 0.188.
To C50G U60A belongs 0.268.
As to A11U A49U, the self-cleavage came out at 0.251.
As to U14C G54A, the self-cleavage is 0.509.
Regarding G1C G42U, the self-cleavage was found to be 0.145.
To G34U A43U belongs 0.0758; to A43U C66U, 0.162.
Turning to G19C A36C, the self-cleavage amounted to 0.374.
On to C6U A36C, for which the self-cleavage stood at 0.705.
As to A41U A44G, the self-cleavage stood at 0.153.
To U9G A26G belongs 0.386.
Regarding A59C U60G, the self-cleavage came to 0.274.
With A36C U67G, the self-cleavage was 0.175.
On to G51A G68C, for which the self-cleavage was found to be 0.31.
As to U7A G19U, the self-cleavage stood at 0.581.
On to U7A G19C, for which the self-cleavage amounted to 0.711.
In the case of U63C G69U it was 0.183; in that of A11U G69A, 0.402; in that of A49U U55G, 0.366.
As for U7G A39U, the self-cleavage stood at 0.421.
As for C66A U70G, the self-cleavage came out at 0.176.
As to U9G A28C, the self-cleavage is 0.315.
To G25A U62G belongs 0.125.
